In US20240067751A1 (KEYMED BIOSCIENCES, published 2024):
Numbering of substitutions follows the chain as printed. Blank lines part the entries; values can stand above or below the binder they belong to.

Experiments:
MASP-2 in human serum [1] = target: T1, MASP-2 in human serum (human, UniProt O00187 16-686); test: cell-based or functional assay
MASP-2 in human serum [2] = target: T1, MASP-2 in human serum; test: cell-based or functional assay; remark: listed apart in the source

T1 sequence (O00187 16-686 limits assumed): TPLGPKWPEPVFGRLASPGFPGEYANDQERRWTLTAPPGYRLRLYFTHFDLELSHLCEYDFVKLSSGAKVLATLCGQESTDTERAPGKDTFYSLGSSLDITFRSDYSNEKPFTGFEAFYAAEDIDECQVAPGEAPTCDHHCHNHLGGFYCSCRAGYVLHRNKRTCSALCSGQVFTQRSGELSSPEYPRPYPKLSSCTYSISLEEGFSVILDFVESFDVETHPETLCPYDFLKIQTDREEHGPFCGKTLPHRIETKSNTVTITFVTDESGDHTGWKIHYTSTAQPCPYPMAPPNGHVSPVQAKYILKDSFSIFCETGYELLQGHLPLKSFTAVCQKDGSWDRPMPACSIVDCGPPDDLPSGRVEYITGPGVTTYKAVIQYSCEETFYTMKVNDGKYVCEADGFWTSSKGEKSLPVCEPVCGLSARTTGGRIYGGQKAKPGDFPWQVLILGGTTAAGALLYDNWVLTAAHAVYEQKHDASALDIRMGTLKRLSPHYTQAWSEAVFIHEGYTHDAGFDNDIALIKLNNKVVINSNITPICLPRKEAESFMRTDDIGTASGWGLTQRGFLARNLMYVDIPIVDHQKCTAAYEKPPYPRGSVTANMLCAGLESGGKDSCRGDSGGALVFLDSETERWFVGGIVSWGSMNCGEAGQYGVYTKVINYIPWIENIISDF

IC50, inhibition of C4b deposition (MASP-2 in human serum [1]): 0.086 nM
IC50, inhibition of C3b deposition (MASP-2 in human serum [2]): 0.151 nM
B2: h3H6 H2K1 (antibody, V domains shown)
VH: QVQLVQSGAEVKKPGSSVKVSCKASGYTFATYSIHWVRQAPGQGLEWMGYINPSSGYTNYNQKFQGRVTLTADESTSTAYMELSSLRSEDTAVYYCARVYYTFYHAMDYWGQGTTVTVSS
VL: DIQMTQSPSSLSASVGDRVTITCRASQDVNTAVAWYQQKPGKAPKLLIYSASYRYTGVPSRFSGSGSGTDFTLTISSLQPEDFATYYCQQHYNIPLTFGGGTKVEIK

IC50, inhibition of C4b deposition (MASP-2 in human serum [1]): 0.032 nM
IC50, inhibition of C3b deposition (MASP-2 in human serum [2]): 0.028 nM
B5: h16B11 H2K2 (antibody, V domains shown)
VH: QLQLQESGPGLVKPSETLSLTCTVSGYSITSDYAWNWIRQPPGKGLEWIGYISYSGRTSYNPSLKSRVTISRDTSKNQFSLKLSSVTAADTAVYYCARHYGDYWGQGTLVTVSS
VL: B2 VL with D28N, N30G, A32N, Y55E, T56S, Y87F, H91F, Y92N, N93T, I94N

IC50, inhibition of C4b deposition (MASP-2 in human serum [1]): 0.051 nM
IC50, inhibition of C3b deposition (MASP-2 in human serum [2]): 0.04 nM
B7: h16B11 H1K2 (antibody, V domains shown)
VH: B5 VH with L2M
VL: B2 VL with D28N, N30G, A32N, Y55E, T56S, Y87F, H91F, Y92N, N93T, I94N

IC50, inhibition of C4b deposition (MASP-2 in human serum [1]): 0.338 nM
IC50, inhibition of C3b deposition (MASP-2 in human serum [2]): 0.506 nM
B9: h28O14 H4K1 (antibody, V domains shown)
VH: QVQLVQSGAEVKKPGSSVKVSCKASGYTFRSHTMHWVRQAPGQGLEWMGYINPSTGYINYNQKFQGRVTITADESTSTAYMELSSLRSEDTAVYYCARSNYAYYYGMDYWGQGTTVTVSS
VL: B2 VL

IC50, inhibition of C4b deposition (MASP-2 in human serum [1]): 0.083 nM
IC50, inhibition of C3b deposition (MASP-2 in human serum [2]): 0.146 nM
B10: h28O14 H1K1 (antibody, V domains shown)
VH: B9 VH with I70L, E74K
VL: B2 VL

IC50, inhibition of C4b deposition (MASP-2 in human serum [1]): 1.69 nM
IC50, inhibition of C3b deposition (MASP-2 in human serum [2]): 0.399 nM
B11: h16B11 H3K2 (antibody, V domains shown)
VH: B5 VH with R72V
VL: B2 VL with D28N, N30G, A32N, Y55E, T56S, Y87F, H91F, Y92N, N93T, I94N

IC50, inhibition of C4b deposition (MASP-2 in human serum [1]): 0.098 nM
IC50, inhibition of C3b deposition (MASP-2 in human serum [2]): 0.06 nM
B15: h16B11 H3K1 (antibody, V domains shown)
VH: B5 VH with R72V
VL: DIQMTQSPSSLSASVGDRVTITCRASQNVGTNVAWYQQKPGKAPKALIYSASYRESGVPSRFSGSGSGTDFTLTISSLQPEDFATYFCQQFNTNPLTFGGGTKVEIK

IC50, inhibition of C3b deposition (MASP-2 in human serum [2]): 0.015 nM
B22: h16B11 H1K4 (antibody, V domains shown)
VH: B5 VH with L2M
VL: EIVMTQSPATLSVSPGERATLSCRASQNVGTNVAWYQQKPGQAPRALIYSASYRESGIPARFSGSGSGTEFTLTISSLQSEDFAVYFCQQFNTNPLTFGGGTKVEIK

IC50, inhibition of C3b deposition (MASP-2 in human serum [2]): 0.052 nM
B23: h16B11 H3K4 (antibody, V domains shown)
VH: B5 VH with R72V
VL: B22 VL

Continued, binder first:

B1: h3H6 H1K1 (antibody, V domains shown)
VH: B2 VH with E74K
VL: B2 VL
IC50, inhibition of C4b deposition (MASP-2 in human serum [1]): 0.014 nM
IC50, inhibition of C3b deposition (MASP-2 in human serum [2]): 0.03 nM

B3: h28O14 H3K1 (antibody, V domains shown)
VH: B9 VH with E74K
VL: B2 VL
IC50, inhibition of C4b deposition (MASP-2 in human serum [1]): 0.064 nM
IC50, inhibition of C3b deposition (MASP-2 in human serum [2]): 0.161 nM

B4: h3H6 H3K1 (antibody, V domains shown)
VH: B2 VH with L70I, E74K
VL: B2 VL
IC50, inhibition of C4b deposition (MASP-2 in human serum [1]): 0.017 nM
IC50, inhibition of C3b deposition (MASP-2 in human serum [2]): 0.034 nM

B6: h28O14 H2K1 (antibody, V domains shown)
VH: B9 VH with I70L
VL: B2 VL
IC50, inhibition of C4b deposition (MASP-2 in human serum [1]): 0.324 nM
IC50, inhibition of C3b deposition (MASP-2 in human serum [2]): 0.483 nM

B8: h3H6 H4K1 (antibody, V domains shown)
VH: B2 VH with L70I
VL: B2 VL
IC50, inhibition of C4b deposition (MASP-2 in human serum [1]): 0.09 nM
IC50, inhibition of C3b deposition (MASP-2 in human serum [2]): 0.151 nM

B12: h16B11 H1K1 (antibody, V domains shown)
VH: B5 VH with L2M
VL: B15 VL
IC50, inhibition of C4b deposition (MASP-2 in human serum [1]): 0.02 nM
IC50, inhibition of C3b deposition (MASP-2 in human serum [2]): 0.014 nM

B13: h16B11 H2K5 (antibody, V domains shown)
VH: B5 VH
VL: B22 VL with A46L
IC50, inhibition of C3b deposition (MASP-2 in human serum [2]): 0.032 nM

B14: h16B11 H2K4 (antibody, V domains shown)
VH: B5 VH
VL: B22 VL
IC50, inhibition of C3b deposition (MASP-2 in human serum [2]): 0.015 nM

B16: h16B11 H2K6 (antibody, V domains shown)
VH: B5 VH
VL: B22 VL with E55Q
IC50, inhibition of C3b deposition (MASP-2 in human serum [2]): 0.018 nM

B17: h16B11 H2K1 (antibody, V domains shown)
VH: B5 VH
VL: B15 VL
IC50, inhibition of C4b deposition (MASP-2 in human serum [1]): 0.02 nM
IC50, inhibition of C3b deposition (MASP-2 in human serum [2]): 0.017 nM

B18: h16B11 H1K6 (antibody, V domains shown)
VH: B5 VH with L2M
VL: B22 VL with E55Q
IC50, inhibition of C3b deposition (MASP-2 in human serum [2]): 0.018 nM

B19: h16B11 H3K5 (antibody, V domains shown)
VH: B5 VH with R72V
VL: B22 VL with A46L
IC50, inhibition of C3b deposition (MASP-2 in human serum [2]): 0.44 nM

B20: h16B11 H1K3 (antibody, V domains shown)
VH: B5 VH with L2M
VL: B15 VL with E55Q
IC50, inhibition of C4b deposition (MASP-2 in human serum [1]): 0.021 nM
IC50, inhibition of C3b deposition (MASP-2 in human serum [2]): 0.023 nM

B21: h16B11 H1K5 (antibody, V domains shown)
VH: B5 VH with L2M
VL: B22 VL with A46L
IC50, inhibition of C3b deposition (MASP-2 in human serum [2]): 0.024 nM

B24: h16B11 H2K3 (antibody, V domains shown)
VH: B5 VH
VL: B15 VL with E55Q
IC50, inhibition of C4b deposition (MASP-2 in human serum [1]): 0.012 nM
IC50, inhibition of C3b deposition (MASP-2 in human serum [2]): 0.018 nM

B25: h16B11 H3K6 (antibody, V domains shown)
VH: B5 VH with R72V
VL: B22 VL with E55Q
IC50, inhibition of C3b deposition (MASP-2 in human serum [2]): 0.071 nM

B26: h16B11 H3K3 (antibody, V domains shown)
VH: B5 VH with R72V
VL: B15 VL with E55Q
IC50, inhibition of C4b deposition (MASP-2 in human serum [1]): 0.44 nM
IC50, inhibition of C3b deposition (MASP-2 in human serum [2]): 0.112 nM
